From the RNAGym collection of RNA variant scans (doi:10.7554/elife.80360)

B1: HDV Ribozyme (parent)
chain: GGCCGGCAUGGUCCCAGCCUCCUCGCUGGCGCCGGCUGGGCAACAUUCCGAGGGGACCGUCCCCUCGGUAAUGGCGAAUGGGACCCA

Variants of: B1
Experiment: self-cleavage, relative activity (ratio to wild type); higher = more cleavage; co-transcriptional
With C33G C36U the self-cleavage was 0.0997.
With G34U A71C the self-cleavage was 0.161.
Work on C33A G38C yielded a self-cleavage of 0.151.
C33G C48A gave a self-cleavage of 0.
C32U G35U gave a self-cleavage of 0.376.
In the case of G34A A83C, the self-cleavage is reported as 0.203.
Variant G34A A83G has a self-cleavage of 0.0817.
Variant C32U G38C has a self-cleavage of 0.233.
C32U G39C gave a self-cleavage of 0.122.
With C33G U65C the self-cleavage was 0.115.
With C33G U65G the self-cleavage was 0.222.
Work on G35C A45C yielded a self-cleavage of 0.
In the case of G35C A45U, the self-cleavage is reported as 0.122.
For G35A G40A, the self-cleavage was 0.346.
G35A G40U showed a self-cleavage of 0.42.
Variant G34C A83U has a self-cleavage of 0.0755.
Work on C33A C44A yielded a self-cleavage of 0.
Work on C33A C44G yielded a self-cleavage of 0.0475.
Variant C33A C36A has a self-cleavage of 0.213.
G34A C48A gave a self-cleavage of 0.259.
Variant C33A A70G has a self-cleavage of 0.198.
Work on C33A A70U yielded a self-cleavage of 0.458.
C33A A70C gave a self-cleavage of 0.17.
Work on C33U C62U yielded a self-cleavage of 0.816.
Work on C33A C84G yielded a self-cleavage of 0.219.
For G34C U46A, the self-cleavage was 0.158.
For C33U G59C, the self-cleavage was 1.01.
With C33A C41A the self-cleavage was 0.0845.
For C33A C41G, the self-cleavage was 0.104.
G34C G54C showed a self-cleavage of 0.295.
G35A C85U gave a self-cleavage of 0.541.
Work on C32U U79A yielded a self-cleavage of 0.653.
C33A A42C showed a self-cleavage of 0.146.
G35A A43U showed a self-cleavage of 0.108.
G35A A43G gave a self-cleavage of 0.185.
Variant G34C C57U has a self-cleavage of 0.188.
G34U C57A gave a self-cleavage of 0.114.
For C33G C86U, the self-cleavage was 0.214.
Work on G34U U72G yielded a self-cleavage of 0.297.
Work on C33A A87C yielded a self-cleavage of 0.248.
For C33A A87G, the self-cleavage was 0.14.
Variant G34U G38U has a self-cleavage of 0.248.
G34U G38C showed a self-cleavage of 0.194.
In the case of G34U G38A, the self-cleavage is reported as 0.0702.
With C33G C66G the self-cleavage was 0.122.
For C33U A70G, the self-cleavage was 0.758.
Variant C33G G74A has a self-cleavage of 0.0449.
Work on G34A A43G yielded a self-cleavage of 0.125.
C33A U69A showed a self-cleavage of 0.325.
C33A A71C gave a self-cleavage of 0.248.
Work on C33A U60C yielded a self-cleavage of 0.415.
C33G U69G showed a self-cleavage of 0.123.
With G35A A78C the self-cleavage was 0.0528.
For G34A G76C, the self-cleavage was 0.217.
In the case of G34U G74U, the self-cleavage is reported as 0.133.
G34U G74A gave a self-cleavage of 0.0821.
C33G C58A gave a self-cleavage of 0.369.
Variant C33G C58U has a self-cleavage of 0.147.
For C33A A83C, the self-cleavage was 0.0449.
C33G C41U gave a self-cleavage of 0.119.
In the case of C33G C41G, the self-cleavage is reported as 0.111.
With C33G A42G the self-cleavage was 0.0665.
For C33G A42C, the self-cleavage was 0.142.
In the case of G34U U46C, the self-cleavage is reported as 0.161.
G34U U46G showed a self-cleavage of 0.196.
With C33A G35U the self-cleavage was 0.137.
For G35A A42C, the self-cleavage was 0.277.
In the case of G35A A42U, the self-cleavage is reported as 0.166.
With C32U C63G the self-cleavage was 0.721.
Work on C33G U46A yielded a self-cleavage of 0.
G34A G55C showed a self-cleavage of 0.141.
For G34U U69C, the self-cleavage was 0.204.
Variant G34U U69A has a self-cleavage of 0.102.
G34A C75U gave a self-cleavage of 0.086.
Work on C32U U69G yielded a self-cleavage of 0.852.
C33U G53C showed a self-cleavage of 0.727.
In the case of C33U G53A, the self-cleavage is reported as 0.95.
For C33A G68A, the self-cleavage was 0.157.
G34U A51U showed a self-cleavage of 0.169.
Work on C33G G81U yielded a self-cleavage of 0.0354.
Work on C33G A45U yielded a self-cleavage of 0.185.
Work on C33A C66A yielded a self-cleavage of 0.485.
With C33A C66G the self-cleavage was 0.302.
In the case of C33A C66U, the self-cleavage is reported as 0.241.
G35A G39C gave a self-cleavage of 0.113.
For C33A C63A, the self-cleavage was 0.196.
Variant G35A A56G has a self-cleavage of 0.769.
In the case of C32U U60G, the self-cleavage is reported as 1.02.
With C33U G55U the self-cleavage was 0.865.
In the case of C33U G55C, the self-cleavage is reported as 0.831.
For G34C A78U, the self-cleavage was 0.0475.
C33A G39A gave a self-cleavage of 0.162.
In the case of G34A G38C, the self-cleavage is reported as 0.166.
With G34A C44G the self-cleavage was 0.134.
G34A C44U showed a self-cleavage of 0.0863.
With G35A G53U the self-cleavage was 0.736.
In the case of C33G A43U, the self-cleavage is reported as 0.175.
With C33A U37G the self-cleavage was 0.119.
In the case of C33A U37C, the self-cleavage is reported as 0.469.
Work on C32U G52C yielded a self-cleavage of 0.751.
G34C G73U gave a self-cleavage of 0.0627.
G34U C49A showed a self-cleavage of 0.151.
G34A U46C showed a self-cleavage of 0.215.
With G34A U46G the self-cleavage was 0.0332.
Variant C33A A78U has a self-cleavage of 0.108.
With C33U A51G the self-cleavage was 1.01.
Work on C33A G34U yielded a self-cleavage of 0.0712.
Work on G34C C86A yielded a self-cleavage of 0.13.
For G34U C62U, the self-cleavage was 0.229.
G34U C62A gave a self-cleavage of 0.0831.
C33A G55A gave a self-cleavage of 0.159.
Variant C33A U72C has a self-cleavage of 0.151.
In the case of C33G G52C, the self-cleavage is reported as 0.128.
For G34C G80C, the self-cleavage was 0.23.
G34C G80A showed a self-cleavage of 0.138.
Variant G34A A87G has a self-cleavage of 0.159.
G34A A87C showed a self-cleavage of 0.126.
With G34U G54U the self-cleavage was 0.0923.
C33A C57A gave a self-cleavage of 0.447.
Work on G35A U65A yielded a self-cleavage of 0.61.
In the case of G34C U79A, the self-cleavage is reported as 0.104.
Work on G34C G59A yielded a self-cleavage of 0.143.
Work on G34A C61A yielded a self-cleavage of 0.302.
Work on G34A C61G yielded a self-cleavage of 0.104.
G34U C63G gave a self-cleavage of 0.0475.
With G34U G55U the self-cleavage was 0.105.
Variant C33A U79A has a self-cleavage of 0.128.
G34U G53A gave a self-cleavage of 0.189.
Work on G34A A71U yielded a self-cleavage of 0.185.
Work on G34A A71G yielded a self-cleavage of 0.178.
In the case of G34C A43G, the self-cleavage is reported as 0.
In the case of G34A G74U, the self-cleavage is reported as 0.0875.
Work on G34A G74A yielded a self-cleavage of 0.0852.
With G35A G54A the self-cleavage was 0.349.
G34U U37G showed a self-cleavage of 0.0519.
In the case of C33U G81A, the self-cleavage is reported as 0.285.
For G34A U47A, the self-cleavage was 0.0997.
Work on G35A C75G yielded a self-cleavage of 0.218.
Variant G34A G81C has a self-cleavage of 0.0733.
G35A U46G gave a self-cleavage of 0.
For G35A U46C, the self-cleavage was 0.289.
C32U G59C gave a self-cleavage of 0.734.
G34C A42C showed a self-cleavage of 0.125.
C32U U72C showed a self-cleavage of 0.532.
G35A C63G gave a self-cleavage of 0.346.
Work on C33U C49A yielded a self-cleavage of 0.946.
C33G G38A showed a self-cleavage of 0.0308.
Work on G34U C84G yielded a self-cleavage of 0.161.
For C33G A70C, the self-cleavage was 0.145.
For C33G G54A, the self-cleavage was 0.332.
With G34C G39C the self-cleavage was 0.0554.
G34C G39A gave a self-cleavage of 0.0536.
For G34A G39U, the self-cleavage was 0.287.
G35A G50U gave a self-cleavage of 0.629.
In the case of C33A A43C, the self-cleavage is reported as 0.0852.
In the case of G34A A45U, the self-cleavage is reported as 0.16.
For C33A G81A, the self-cleavage was 0.0339.
C33A G81C gave a self-cleavage of 0.222.
Work on C33G C84A yielded a self-cleavage of 0.231.
Work on C33G C64G yielded a self-cleavage of 0.156.
In the case of C33U G76U, the self-cleavage is reported as 1.02.
With C33U G76C the self-cleavage was 1.07.
Variant C33U C86G has a self-cleavage of 0.884.
In the case of C33U C86U, the self-cleavage is reported as 0.928.
C33U C66A showed a self-cleavage of 0.774.
In the case of C33U C66G, the self-cleavage is reported as 0.946.
Work on C33U G82U yielded a self-cleavage of 0.266.
